In the experiment the target is SroF^Phi3T, master repressor of phage Phi3T (recombinant) (Bacillus phage Phi3T). Kind of experiment: BLI.

On to “Sar^Phi3T, shorter annotation lacking the first 10 amino acids (recombinant) (natural protein)”, for which the Kd was 21.7 nM.

(Values after article doi:10.1101/2025.11.27.690993.)
